Measurements as given in patent publication US20080267961A1 (published 2008).
Blank lines part the entries; values can stand above or below the molecule they belong to.

Tests used:
[1] = target: HRGβ177-244 (UniProt Q02297); test: 125I-HRGβ177-244 binding to ErbB3-IgG homodimer (positive control), 96-well plate, Scatchard analysis
[2] = target: ErbB2 (UniProt P04626); test: inhibition of 125I-HRGβ177-244 (0.1 nM) binding to T47D cells; 2C4 varied
[3] = target: HRGα EGF domain177-241 (UniProt Q02297); test: cell-based or functional assay
[4] = target: T1, HRGβ 1 EGF domain 176-246 (UniProt Q02297-6 176-246, 125I-labelled in the crosslinking experiment (residue not stated)); test: cell-based or functional assay
T1 sequence (looked up): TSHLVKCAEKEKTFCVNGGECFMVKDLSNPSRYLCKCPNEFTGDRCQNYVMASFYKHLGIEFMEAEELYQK

[5] = target: HRGα EGF domain177-241, Q02297; test: cell-based or functional assay
[6] = target: HRGβ177-244 (UniProt Q02297); test: 125I-HRGβ177-244 binding to immobilized p85-sErbB3, 96-well plate, Scatchard analysis
[7] = target: HRGβ177-244 (UniProt Q02297); test: inhibition of 125I-HRGβ177-244 (0.1 nM) binding to T47D cells; p85-sErbB3 varied

- Kd [1]: 4.7 nM
Molecule: ErbB3-IgG fusion protein (from UniProt P21860 20-643) (Fc fusion)

- IC50 [2]: 0.55 nM
Molecule: 2C4, a monoclonal antibody specific for the ErbB2 extracellular domain

- inhibition of HRGα-stimulated ErbB3 activation (tyrosine phosphorylation, densitometry) in Ba/F3 (ErbB2+ErbB3) cells, 1 µg/ml HRGα, conditioned medium [3]: 40%
- decrease of ligand-stimulated ErbB3 tyrosine phosphorylation in Ba/F3 (ErbB2+ErbB3) cells, 50 and 100 ng/ml HRGβ, conditioned medium [4]: 60%
Molecule: p45-sErbB3 (from UniProt P21860 20-329) (receptor)

- decrease of HRGα-stimulated ErbB3 activation in Ba/F3 (ErbB2+ErbB3) cells, 2 µg/ml HRGα, conditioned medium [5]: 30%
- inhibition of HRGα-stimulated ErbB3 activation (tyrosine phosphorylation, densitometry) in Ba/F3 (ErbB2+ErbB3) cells, 1 µg/ml HRGα, conditioned medium [5]: 80%
B1: p85-sErbB3, P21860 20-538 (receptor)
chain: SEVGNSQAVCPGTLNGLSVTGDAENQYQTLYKLYERCEVVMGNLEIVLTGHNADLSFLQWIREVTGYVLVAMNEFSTLPLPNLRVVRGTQVYDGKFAIFVMLNYNTNSSHALRQLRLTQLTEILSGGVYIEKNDKLCHMDTIDWRDIVRDRDAEIVVKDNGRSCPPCHEVCKGRCWGPGSEDCQTLTKTICAPQCNGHCFGPNPNQCCHDECAGGCSGPQDTDCFACRHFNDSGACVPRCPQPLVYNKLTFQLEPNPHTKYQYGGVCVASCPHNFVVDQTSCVRACPPDKMEVDKNGLKMCEPCGGLCPKACEGTGSGSRFQTVDSSNIDGFVNCTKILGNLDFLITGLNGDPWHKIPALDPEKLNVFRTVREITGYLNIQSWPPHMHNFSVFSNLTTIGGRSLYNRGFSLLIMKNLNVTSLGFRSLKEISAGRIYISANRQLCYHHSLNWTKVLRGPTEERLDIKHNRPRRDCVAEGKVCDPLCSSGGCWGPGPGQCLSCRNYSRGGVCVTHCNFLNGYSKGSQSRMGGGGALQWNCSGGIQ
modifications: here or on the partner: Secreted glycoprotein (bound to Con A); glycans not carried by the letters.

- Kd [6]: 3 nM
- IC50 [7]: 0.45 nM
- inhibition of HRGβ-stimulated MCF7 cell growth, 0.4 nM HRGβ, 40 nM p85-sErbB3 (100-fold molar excess), 5,000 cells/well [4]: 75%
- inhibition of HRGβ-stimulated MCF7 cell growth, 0.4 nM HRGβ, 40 nM p85-sErbB3 (100-fold molar excess), 8,000 cells/well [4]: 90%
B2: p85-sErbB3 (receptor)
chain: SEVGNSQAVCPGTLNGLSVTGDAENQYQTLYKLYERCEVVMGNLEIVLTGHNADLSFLQWIREVTGYVLVAMNEFSTLPLPNLRVVRGTQVYDGKFAIFVMLNYNTNSSHALRQLRLTQLTEILSGGVYIEKNDKLCHMDTIDWRDIVRDRDAEIVVKDNGRSCPPCHEVCKGRCWGPGSEDCQTLTKTICAPQCNGHCFGPNPNQCCHDECAGGCSGPQDTDCFACRHFNDSGACVPRCPQPLVYNKLTFQLEPNPHTKYQYGGVCVASCPHNFVVDQTSCVRACPPDKMEVDKNGLKMCEPCGGLCPKACEGTGSGSRFQTVDSSNIDGFVNCTKILGNLDFLITGLNGDPWHKIPALDPEKLNVFRTVREITGYLNIQSWPPHMHNFSVFSNLTTIGGRSLYNRGFSLLIMKNLNVTSLGFRSLKEISAGRIYISANRQLCYHHSLNWTKVLRGPTEERLDIKHNRPRRDCVAEGKVCDPLCSSGGCWGPGPGQCLSCRNYSRGGVCVTHCNFLNGYSKGSQSRMGGGGALQWNCSGGIQ
modifications: Secreted glycoprotein (bound to Con A); glycans not carried by the letters.
